One block for each binder: values may come before it. Non-standard residues stand in square brackets, D forms with d. No end group written: not given here. pS = N[C@@H](COP(=O)(O)O)C(=O)O
Tests used:
[1] = target: T1, TTD of UHRF1 (residues 134–285) (human, UniProt Q96T88 134-285); assay: ITC
T1 chain: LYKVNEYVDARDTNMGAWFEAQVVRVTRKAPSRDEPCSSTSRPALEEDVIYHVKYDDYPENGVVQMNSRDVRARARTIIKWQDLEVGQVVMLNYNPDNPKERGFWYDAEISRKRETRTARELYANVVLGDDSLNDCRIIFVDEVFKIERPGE

[2] = target: T1, TTD of UHRF1 (residues 134–285); assay: ITC; in presence of Linker
[3] = target: T1, TTD of UHRF1 (residues 134–285); assay: ITC; in presence of Linker (TTD:Linker 1:2)
[4] = target: T1, TTD of UHRF1 (residues 134–285); assay: ITC; phosphorylated S651

Binder: TGKGKWKRKSAGGGPSRAGSPRRTSKKTKVEPY (domain or fragment) [Spacer^642–674]
- Kd [1]: 0.97 µM

Binder: TGKGKWKRKSAGGGPSRAGSPRR [unmodified peptide of Spacer^642–664]
- Kd [1]: 1.26 µM

Continued, values first:

- Kd [2]: 3.73 µM
- Kd [3]: 3.73 µM
B1: Spacer of UHRF1 (residues 587–674) (domain or fragment)
chain: PGPWTKEGKDRIKKLGLTMQYPEGYLEALANREREKENSKREEEEQQEGGFASPRTGKGKWKRKSAGGGPSRAGSPRRTSKKTKVEPY

- Kd [4]: 27.8 µM
Binder: TGKGKWKRK[pS]AGGGPSRAGSPRR [peptide of Spacer^642–664 phosphorylated at S651]
